Measured values published in patent US20120149636A1.

Legend:
[1] = target: T1, full length rat GHR (L43R) on BAF3 cells (rat) (UniProt P16310); assay: cell-based or functional assay
T1 sequence (looked up): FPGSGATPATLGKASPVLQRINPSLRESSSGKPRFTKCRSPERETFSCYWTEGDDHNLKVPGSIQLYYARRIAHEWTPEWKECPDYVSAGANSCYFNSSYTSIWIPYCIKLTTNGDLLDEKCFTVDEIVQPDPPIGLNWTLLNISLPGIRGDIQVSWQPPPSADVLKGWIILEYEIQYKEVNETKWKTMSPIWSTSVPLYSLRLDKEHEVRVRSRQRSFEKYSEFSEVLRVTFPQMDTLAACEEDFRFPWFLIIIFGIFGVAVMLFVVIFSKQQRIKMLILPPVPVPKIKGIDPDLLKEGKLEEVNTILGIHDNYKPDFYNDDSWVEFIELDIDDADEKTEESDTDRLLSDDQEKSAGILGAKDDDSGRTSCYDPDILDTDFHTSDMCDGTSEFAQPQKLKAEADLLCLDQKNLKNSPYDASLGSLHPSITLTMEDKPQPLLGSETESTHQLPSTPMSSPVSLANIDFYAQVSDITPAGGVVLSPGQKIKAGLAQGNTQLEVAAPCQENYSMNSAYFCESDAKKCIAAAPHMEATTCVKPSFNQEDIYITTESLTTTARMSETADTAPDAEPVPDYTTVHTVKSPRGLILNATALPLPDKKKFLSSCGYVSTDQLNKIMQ

[2] = target: human growth hormone receptor on IM-9 cells (human) (UniProt P10912); assay: cell-based or functional assay
UniProt P10912, sequence (P10912 19-638): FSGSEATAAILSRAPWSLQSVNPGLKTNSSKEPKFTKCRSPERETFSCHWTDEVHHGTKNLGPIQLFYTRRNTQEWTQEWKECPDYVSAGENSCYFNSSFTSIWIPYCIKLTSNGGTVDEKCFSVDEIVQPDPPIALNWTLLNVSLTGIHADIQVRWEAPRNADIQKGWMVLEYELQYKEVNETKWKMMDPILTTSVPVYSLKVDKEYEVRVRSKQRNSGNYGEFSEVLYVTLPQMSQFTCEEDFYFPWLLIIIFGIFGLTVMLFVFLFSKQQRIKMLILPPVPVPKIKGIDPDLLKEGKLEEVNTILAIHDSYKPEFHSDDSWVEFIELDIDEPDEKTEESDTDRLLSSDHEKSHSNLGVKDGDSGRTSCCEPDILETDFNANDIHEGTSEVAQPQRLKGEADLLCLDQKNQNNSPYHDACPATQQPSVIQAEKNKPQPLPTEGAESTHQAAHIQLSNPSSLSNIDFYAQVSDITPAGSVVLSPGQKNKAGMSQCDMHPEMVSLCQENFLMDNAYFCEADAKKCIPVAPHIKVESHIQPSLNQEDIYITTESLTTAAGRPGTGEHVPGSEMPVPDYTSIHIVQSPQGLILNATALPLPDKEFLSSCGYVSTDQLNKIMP

| Substance | Proliferation EC50 (BrdU), WHO hGH expressed as unity (relative, WHO hGH = 1 (head prints nM)) [1] | pSTAT5 EC50 (IM-9), WHO hGH expressed as unity (relative, WHO hGH = 1 (head prints nM)) [2] |
| --- | --- | --- |
| K145pAF-30KPEG (from UniProt P01241 27-217) (ligand) | 5.3 | 20.6 |
| Y35pAF-40KPEG (from UniProt P01241 27-217) (ligand) | 24 | 53.3 |
| Y143pAF-30KPEG (from UniProt P01241 27-217) (ligand) | 6.6 | 12.3 |

Continued, values first:

| Proliferation EC50 (BrdU), WHO hGH expressed as unity (relative, WHO hGH = 1 (head prints nM)) [1] | pSTAT5 EC50 (IM-9), WHO hGH expressed as unity (relative, WHO hGH = 1 (head prints nM)) [2] | Substance |
| --- | --- | --- |
| 4.6 | 23.8 | G131pAF-30KPEG (from UniProt P01241 27-217) (ligand) |
| – | 5.3 | R134pAF-20KPEG (from UniProt P01241 27-217) (ligand) |
